{"source": "paper PMC3553496", "about": "(Science signaling, 2011)", "binders": {"B1": {"name": "GST-tagged ARHGAP26 SH3 domain (domain or fragment, human, UniProt Q9UNA1 759-814, looked up)", "chain": "RKAKALYACKAEHDSELSFTAGTVFDNVHPSQEPGWLEGTLNGKTGLIPENYVEFL"}, "B2": {"name": "GST-tagged ARHGAP12 SH3 domain (domain or fragment, human, UniProt Q8IWW6 15-73, looked up)", "chain": "VYIEVEYDYEYEAKDRKIVIKQGERYILVKKTNDDWWQVKPDENSKAFYVPAQYVKEVT"}, "B3": {"name": "GST-tagged ARHGAP4 SH3 domain (domain or fragment)", "chain": "not shown"}, "B4": {"name": "GST-tagged SRGAP2 SH3 domain (domain or fragment)", "chain": "not shown"}, "B5": {"name": "GST-tagged ARHGAP9 SH3 domain (domain or fragment, human, UniProt Q9BRR9 25-87, looked up)", "chain": "SQLCALYAFTYTGADGQQVSLAEGDRFLLLRKTNSDWWLARRLEAPSTSRPIFVPAAYMIEES"}, "B6": {"name": "GST-tagged SNX26 SH3 domain (domain or fragment, human, UniProt O14559 189-247, looked up)", "chain": "AAAHVIKRYTAQAPDELSFEVGDIVSVIDMPPTEDRSWWRGKRGFQVGFFPSECVELFT"}}, "test_in_all_cases": "peptide or protein array", "key": {"[1]": {"target": "T1, Serine-threonine protein kinase N3 peptide (18-mer) (human)", "T1 peptide": "EMTPPPKPPRLYLPQEPT"}, "[2]": {"target": "T2, Focal adhesion kinase 1 peptide (18-mer) (human)", "T2 peptide": "DPAAPPKKPPRPGAPGHL"}, "[3]": {"target": "T3, NEDD9-interacting protein with calponin homology and LIM domains peptide (18-mer) (human)", "T3 peptide": "DPEMEPPPKPPRSCSALA"}, "[4]": {"target": "T4, Ankyrin repeat and SAM domain–containing protein 1A peptide (18-mer) (human)", "T4 peptide": "DRPYEEPPQKPPRFSQLR"}, "[5]": {"target": "T5, Rab11 family interacting protein 5 peptide (18-mer) (human)", "T5 peptide": "RIMETSPTLLQIPPGPPK"}, "[6]": {"target": "T6, U1 small nuclear ribonucleoprotein C peptide (18-mer) (human)", "T6 peptide": "GAMIPPPPSLPGPPRPGM"}, "[7]": {"target": "T7, Tight junction protein ZO-2 peptide (18-mer) (human)", "T7 peptide": "FGRSILKPSTPIPPQEGE"}, "[8]": {"target": "T8, Serine-threonine protein kinase WNK1 peptide (18-mer) (human)", "T8 peptide": "NATALELPGLPLSLPQPS"}, "[9]": {"target": "T9, Diaphanous homolog 1 peptide (18-mer) (human)", "T9 peptide": "LPGGTAIPPPPPLPGSAR"}, "[10]": {"target": "T10, DAZ-associated protein 1 peptide (18-mer) (human)", "T10 peptide": "QFSFGYGPPPPPPDQFAP"}, "[11]": {"target": "T11, Splicing factor 1 peptide (18-mer) (human)", "T11 peptide": "GMPPFGMPPAPPPPPPQN"}, "[12]": {"target": "T12, YLP motif–containing protein 1 peptide (18-mer) (human)", "T12 peptide": "HHLPPPPLPPPPVMPGGG"}, "[13]": {"target": "T13, Gephyrin peptide (18-mer) (human)", "T13 peptide": "FGRVFMKPGLPTTFATLD"}, "[14]": {"target": "T14, Glutamate–cysteine ligase catalytic peptide (18-mer) (human)", "T14 peptide": "WQTMRFKPPPPNSDIGWR"}, "[15]": {"target": "T15, Dishevelled, dsh homolog 3 peptide (18-mer) (human)", "T15 peptide": "MAFPRPRPWGPQEPLRAA"}, "[16]": {"target": "T16, SET and MYND domain–containing protein 3 peptide (18-mer) (human)", "T16 peptide": "NGLRAVTPLRPGELLFRS"}, "[17]": {"target": "T17, Coiled-coil domain–containing protein KIAA1826 peptide (18-mer) (human)", "T17 peptide": "SRRENELPDFPHIDEFFT"}, "[18]": {"target": "T18, EGFR kinase substrate 8 peptide (18-mer) (human)", "T18 peptide": "PKEQFIPPYVPRFRNGWE"}, "[19]": {"target": "T19, UPF0027 protein C22orf28 peptide (18-mer) (human)", "T19 peptide": "GSTRAFPPHHPLIAVDYQ"}, "[20]": {"target": "T20, Proline-rich protein 4 peptide (18-mer) (human)", "T20 peptide": "GHRQLSLPRFPSVSLQEA"}, "[21]": {"target": "T21, Statherin peptide (18-mer) (human)", "T21 peptide": "RFGYGYGPYQPVPEQPLY"}, "[22]": {"target": "T22, Tyrosine protein kinase ABL1 peptide (18-mer) (human)", "T22 peptide": "KKKKKTAPTPPKRSSSFR"}, "[23]": {"target": "T23, Adenylyl cyclase–associated protein 1 peptide (18-mer) (human)", "T23 peptide": "PPPPPPCPPPPPVSTISC"}}}
{"binder": "B1", "values": [{"measurement": "relative binding strength (% of the strongest interaction of this SH3 domain)", "setting": "[1]", "value": 100, "unit": "%"}, {"measurement": "relative binding strength (% of the strongest interaction of this SH3 domain)", "setting": "[2]", "value": 91, "unit": "%"}, {"measurement": "relative binding strength (% of the strongest interaction of this SH3 domain)", "setting": "[3]", "value": 64, "unit": "%"}, {"measurement": "relative binding strength (% of the strongest interaction of this SH3 domain)", "setting": "[4]", "value": 27, "unit": "%"}, {"measurement": "relative binding strength (% of the strongest interaction of this SH3 domain)", "setting": "[5]", "value": 6, "unit": "%"}]}
{"binder": "B2", "values": [{"measurement": "relative binding strength (% of the strongest interaction of this SH3 domain)", "setting": "[6]", "value": 100, "unit": "%"}, {"measurement": "relative binding strength (% of the strongest interaction of this SH3 domain)", "setting": "[7]", "value": 93, "unit": "%"}, {"measurement": "relative binding strength (% of the strongest interaction of this SH3 domain)", "setting": "[8]", "value": 52, "unit": "%"}]}
{"binder": "B3", "values": [{"measurement": "relative binding strength (% of the strongest interaction of this SH3 domain)", "setting": "[9]", "value": 100, "unit": "%"}, {"measurement": "relative binding strength (% of the strongest interaction of this SH3 domain)", "setting": "[10]", "value": 18, "unit": "%"}, {"measurement": "relative binding strength (% of the strongest interaction of this SH3 domain)", "setting": "[11]", "value": 7, "unit": "%"}]}
{"binder": "B4", "values": [{"measurement": "relative binding strength (% of the strongest interaction of this SH3 domain)", "setting": "[12]", "value": 100, "unit": "%"}, {"measurement": "relative binding strength (% of the strongest interaction of this SH3 domain)", "setting": "[13]", "value": 55, "unit": "%"}, {"measurement": "relative binding strength (% of the strongest interaction of this SH3 domain)", "setting": "[14]", "value": 18, "unit": "%"}, {"measurement": "relative binding strength (% of the strongest interaction of this SH3 domain)", "setting": "[15]", "value": 9, "unit": "%"}]}
{"binder": "B5", "values": [{"measurement": "relative binding strength (% of the strongest interaction of this SH3 domain)", "setting": "[16]", "value": 100, "unit": "%"}, {"measurement": "relative binding strength (% of the strongest interaction of this SH3 domain)", "setting": "[17]", "value": 70, "unit": "%"}, {"measurement": "relative binding strength (% of the strongest interaction of this SH3 domain)", "setting": "[18]", "value": 24, "unit": "%"}, {"measurement": "relative binding strength (% of the strongest interaction of this SH3 domain)", "setting": "[19]", "value": 13, "unit": "%"}]}
{"binder": "B6", "values": [{"measurement": "relative binding strength (% of the strongest interaction of this SH3 domain)", "setting": "[20]", "value": 100, "unit": "%"}, {"measurement": "relative binding strength (% of the strongest interaction of this SH3 domain)", "setting": "[21]", "value": 28, "unit": "%"}, {"measurement": "relative binding strength (% of the strongest interaction of this SH3 domain)", "setting": "[22]", "value": 20, "unit": "%"}, {"measurement": "relative binding strength (% of the strongest interaction of this SH3 domain)", "setting": "[23]", "value": 10, "unit": "%"}]}
